Laboratory results from patent publication US20130166268.

Tested on: full-length rat proMMP9(1-708) (SEQ ID NO:11)
Sequence (chain, as listed by the source): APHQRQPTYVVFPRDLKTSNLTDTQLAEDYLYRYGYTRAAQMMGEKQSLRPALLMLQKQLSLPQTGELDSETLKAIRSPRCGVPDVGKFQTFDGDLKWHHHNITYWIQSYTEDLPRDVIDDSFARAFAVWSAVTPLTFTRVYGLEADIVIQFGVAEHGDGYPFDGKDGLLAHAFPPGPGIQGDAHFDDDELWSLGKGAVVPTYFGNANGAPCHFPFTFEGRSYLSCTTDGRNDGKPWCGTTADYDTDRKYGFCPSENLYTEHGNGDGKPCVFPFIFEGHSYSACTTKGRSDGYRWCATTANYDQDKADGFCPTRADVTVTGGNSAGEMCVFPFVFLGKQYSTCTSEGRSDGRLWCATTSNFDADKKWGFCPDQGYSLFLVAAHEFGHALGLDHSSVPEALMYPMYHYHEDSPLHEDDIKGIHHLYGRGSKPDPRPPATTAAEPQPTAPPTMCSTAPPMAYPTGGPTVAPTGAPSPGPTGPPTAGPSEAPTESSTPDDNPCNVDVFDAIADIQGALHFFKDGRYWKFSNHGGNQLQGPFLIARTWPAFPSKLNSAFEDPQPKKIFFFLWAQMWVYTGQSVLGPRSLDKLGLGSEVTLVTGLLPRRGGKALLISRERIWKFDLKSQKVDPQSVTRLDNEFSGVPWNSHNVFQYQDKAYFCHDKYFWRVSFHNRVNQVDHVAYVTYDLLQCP

Chain of human catalytic MMP3, MMP3(100-265) (SEQ ID NO:8) (chain, as listed by the source): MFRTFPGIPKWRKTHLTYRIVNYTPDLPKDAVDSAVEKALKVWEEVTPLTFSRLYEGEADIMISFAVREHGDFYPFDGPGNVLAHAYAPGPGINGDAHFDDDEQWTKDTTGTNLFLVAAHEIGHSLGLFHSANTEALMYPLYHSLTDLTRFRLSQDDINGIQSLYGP

human catalytic MMP3, MMP3(100-265) (SEQ ID NO:8)
conversion of proMMP9 to catalytic MMP9 (Western blot standard): full-length rat proMMP9(1-708) (SEQ ID NO:11) converted to catalytic rat MMP9 by catalytic MMP3
